Experimental data from article PMC2443151.

Assays:
[1] = molecular target: PLA2 (phospholipase A2) from Crotalus durissus cascavella rattlesnake venom (Crotalus durissus cascavella)
[2] = molecular target: PLA2 (phospholipase A2) from Crotalus durissus cascavella rattlesnake venom (Crotalus durissus cascavella); remark: listed apart in the source

BTL-2, isolectin from the red marine alga Bryothamnion triquetrum (natural protein)
enzymatic activity of PLA2 on 4-nitro-3-octanoyloxy-benzoic acid after incubation with BTL-2; increase against PLA2 alone [1]: 23% | aggregation of washed human platelets induced by PLA2 after 30 min incubation with BTL-2, at 1 μg and 3 μg (72.7% and 48.8%), compared to PLA2 alone [2]: 72.7%
